Test results as given in patent CN111574631A.

Key:
硫氧还蛋白(Thioredoxin，Trx) [1] = experiment: indirect ELISA, Trx coated at 1 ug/ml, antibody 125 ng/ml, goat anti-mouse IgG-HRP, OD450 (ref 630)
硫氧还蛋白(Thioredoxin，Trx) [2] = experiment: indirect ELISA, Trx coated at 1 ug/ml, antibody 1.95 ng/ml, goat anti-mouse IgG-HRP, OD450 (ref 630)
硫氧还蛋白(Thioredoxin，Trx) [3] = experiment: indirect ELISA, Trx coated at 3 ug/ml, supernatant of transiently transfected CHO cells diluted 1000-fold, goat anti-mouse-HRP, OD450 (ref 630)
硫氧还蛋白(Thioredoxin，Trx) [4] = experiment: indirect ELISA, Trx coated at 1 ug/ml, antibody 0 ng/ml (blank well), goat anti-mouse IgG-HRP, OD450 (ref 630)
硫氧还蛋白(Thioredoxin，Trx) [5] = experiment: indirect ELISA, Trx coated at 1 ug/ml, antibody 1000 ng/ml, goat anti-mouse IgG-HRP, OD450 (ref 630)
硫氧还蛋白(Thioredoxin，Trx) [6] = experiment: indirect ELISA, Trx coated at 1 ug/ml, antibody 15.63 ng/ml, goat anti-mouse IgG-HRP, OD450 (ref 630)

硫氧还蛋白(Thioredoxin，Trx), sequence (P0AA25 2-109): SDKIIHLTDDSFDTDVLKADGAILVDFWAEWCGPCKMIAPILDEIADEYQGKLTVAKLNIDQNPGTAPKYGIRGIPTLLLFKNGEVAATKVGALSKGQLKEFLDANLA

OD (硫氧还蛋白(Thioredoxin，Trx) [1]): 2.14 OD
OD (硫氧还蛋白(Thioredoxin，Trx) [2]): 0.488 OD
OD (硫氧还蛋白(Thioredoxin，Trx) [3]): > 1 OD
OD (硫氧还蛋白(Thioredoxin，Trx) [4]): 0.057 OD
OD (硫氧还蛋白(Thioredoxin，Trx) [5]): 2.31 OD
OD (硫氧还蛋白(Thioredoxin，Trx) [6]): 1.62 OD
B1: 实施例4的硫氧还蛋白的单克隆抗体(WT) (antibody, mouse IgG1, kappa, V domains shown)
VH: EVQLQQSGPMLVKPGASVTISCKASGFTITDYNLHWVRQSHGKSLEWIGYITSYNGGTGYNQKFKTKATLTVDKSSTTAYMELRSLTSDDSALYYCARNFRNYFEHWGQGTTLTVSS
VL: DIQMTQPTSSLSASLGDRVTISCRASQDLYNSINWYQQKPDGTVKLLIYYTSRIHSGVPSRFSGSGSGTDYSLTISNLEQEDIATYFCQQGNSIPRTFGGGTKLEIKR
